Starred links: 1 amine or outer side, 2 acyl side, 3 side chain; linkers in the order of their positions; H or OH if unused. Non-standard residues stand in square brackets, D forms with d. Groups on a side chain read outwards from the residue. No end group written: not given here. *: point of attachment. C18 diacid = O=C(O)CCCCCCCCCCCCCCCCC(=O)*; γGlu = O=C(O)[C@H](CCC(=O)[*:2])N[*:1]; Palmitoyl = CCCCCCCCCCCCCCCC(=O)*; AEEA = NCCOCCOCC(=O)O; Aib = CC(C)(N)C(=O)O
Target: human corticotropin-releasing factor 2α (CRF2 α receptor) (human), Q13324
Sequence (Q13324 20-411): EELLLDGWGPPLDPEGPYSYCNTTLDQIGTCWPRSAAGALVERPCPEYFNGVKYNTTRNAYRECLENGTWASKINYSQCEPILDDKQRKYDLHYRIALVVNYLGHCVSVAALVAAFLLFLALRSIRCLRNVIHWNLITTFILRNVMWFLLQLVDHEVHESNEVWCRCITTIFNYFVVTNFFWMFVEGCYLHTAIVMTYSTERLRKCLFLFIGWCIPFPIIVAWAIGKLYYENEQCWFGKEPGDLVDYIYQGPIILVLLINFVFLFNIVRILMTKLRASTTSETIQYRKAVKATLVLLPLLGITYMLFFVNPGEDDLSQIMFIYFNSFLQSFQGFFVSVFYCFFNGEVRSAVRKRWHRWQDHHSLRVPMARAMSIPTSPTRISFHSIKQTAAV
Assay: cell-based or functional assay

Binder | EC50 [nM], 0% HSA
IVLSLDVPIKLK([AEEA-AEEA-γGlu-C18 diacid])K[Aib]LLEQERQKKQREQAETNKQILAQV-NH2 (N-terminus assumed; SMILES CC[C@H](C)[C@H](N)C(=O)N[C@H](C(=O)N[C@@H](CC(C)C)C(=O)N[C@@H](CO)C(=O)N[C@@H](CC(C)C)C(=O)N[C@@H](CC(=O)O)C(=O)N[C@H](C(=O)N1CCC[C@H]1C(=O)N[C@H](C(=O)N[C@@H](CCCCN)C(=O)N[C@@H](CC(C)C)C(=O)N[C@@H](CCCCNC(=O)COCCOCCNC(=O)COCCOCCNC(=O)CC[C@H](NC(=O)CCCCCCCCCCCCCCCCC(=O)O)C(=O)O)C(=O)N[C@@H](CCCCN)C(=O)NC(C)(C)C(=O)N[C@@H](CC(C)C)C(=O)N[C@@H](CC(C)C)C(=O)N[C@@H](CCC(=O)O)C(=O)N[C@@H](CCC(N)=O)C(=O)N[C@@H](CCC(=O)O)C(=O)N[C@@H](CCCNC(=N)N)C(=O)N[C@@H](CCC(N)=O)C(=O)N[C@@H](CCCCN)C(=O)N[C@@H](CCCCN)C(=O)N[C@@H](CCC(N)=O)C(=O)N[C@@H](CCCNC(=N)N)C(=O)N[C@@H](CCC(=O)O)C(=O)N[C@@H](CCC(N)=O)C(=O)N[C@@H](C)C(=O)N[C@@H](CCC(=O)O)C(=O)N[C@H](C(=O)N[C@@H](CC(N)=O)C(=O)N[C@@H](CCCCN)C(=O)N[C@@H](CCC(N)=O)C(=O)N[C@H](C(=O)N[C@@H](CC(C)C)C(=O)N[C@@H](C)C(=O)N[C@@H](CCC(N)=O)C(=O)N[C@H](C(N)=O)C(C)C)[C@@H](C)CC)[C@@H](C)O)[C@@H](C)CC)C(C)C)C(C)C) [SEQ ID NO: 69] | 0.61 nM
IVLSLDVPIGLK([γGlu-Palmitoyl])QKLLKQEKQEKEKQQAETNAKILAQV-NH2 (N-terminus assumed; SMILES CCCCCCCCCCCCCCCC(=O)N[C@@H](CCC(=O)NCCCC[C@H](NC(=O)[C@H](CC(C)C)NC(=O)CNC(=O)[C@@H](NC(=O)[C@@H]1CCCN1C(=O)[C@@H](NC(=O)[C@H](CC(=O)O)NC(=O)[C@H](CC(C)C)NC(=O)[C@H](CO)NC(=O)[C@H](CC(C)C)NC(=O)[C@@H](NC(=O)[C@@H](N)[C@@H](C)CC)C(C)C)C(C)C)[C@@H](C)CC)C(=O)N[C@@H](CCC(N)=O)C(=O)N[C@@H](CCCCN)C(=O)N[C@@H](CC(C)C)C(=O)N[C@@H](CC(C)C)C(=O)N[C@@H](CCCCN)C(=O)N[C@@H](CCC(N)=O)C(=O)N[C@@H](CCC(=O)O)C(=O)N[C@@H](CCCCN)C(=O)N[C@@H](CCC(N)=O)C(=O)N[C@@H](CCC(=O)O)C(=O)N[C@@H](CCCCN)C(=O)N[C@@H](CCC(=O)O)C(=O)N[C@@H](CCCCN)C(=O)N[C@@H](CCC(N)=O)C(=O)N[C@@H](CCC(N)=O)C(=O)N[C@@H](C)C(=O)N[C@@H](CCC(=O)O)C(=O)N[C@H](C(=O)N[C@@H](CC(N)=O)C(=O)N[C@@H](C)C(=O)N[C@@H](CCCCN)C(=O)N[C@H](C(=O)N[C@@H](CC(C)C)C(=O)N[C@@H](C)C(=O)N[C@@H](CCC(N)=O)C(=O)N[C@H](C(N)=O)C(C)C)[C@@H](C)CC)[C@@H](C)O)C(=O)O) [SEQ ID NO: 4] | 0.04 nM

More lines, now with the values ahead:

EC50 [nM], 0% HSA | Binder
0.91 nM | IVLSLDVPIKLK([AEEA-AEEA-γGlu-C18 diacid])QILLEQERQKKQREQAETN[Aib]QILAQV-NH2 (N-terminus assumed; SMILES CC[C@H](C)[C@H](N)C(=O)N[C@H](C(=O)N[C@@H](CC(C)C)C(=O)N[C@@H](CO)C(=O)N[C@@H](CC(C)C)C(=O)N[C@@H](CC(=O)O)C(=O)N[C@H](C(=O)N1CCC[C@H]1C(=O)N[C@H](C(=O)N[C@@H](CCCCN)C(=O)N[C@@H](CC(C)C)C(=O)N[C@@H](CCCCNC(=O)COCCOCCNC(=O)COCCOCCNC(=O)CC[C@H](NC(=O)CCCCCCCCCCCCCCCCC(=O)O)C(=O)O)C(=O)N[C@@H](CCC(N)=O)C(=O)N[C@H](C(=O)N[C@@H](CC(C)C)C(=O)N[C@@H](CC(C)C)C(=O)N[C@@H](CCC(=O)O)C(=O)N[C@@H](CCC(N)=O)C(=O)N[C@@H](CCC(=O)O)C(=O)N[C@@H](CCCNC(=N)N)C(=O)N[C@@H](CCC(N)=O)C(=O)N[C@@H](CCCCN)C(=O)N[C@@H](CCCCN)C(=O)N[C@@H](CCC(N)=O)C(=O)N[C@@H](CCCNC(=N)N)C(=O)N[C@@H](CCC(=O)O)C(=O)N[C@@H](CCC(N)=O)C(=O)N[C@@H](C)C(=O)N[C@@H](CCC(=O)O)C(=O)N[C@H](C(=O)N[C@@H](CC(N)=O)C(=O)NC(C)(C)C(=O)N[C@@H](CCC(N)=O)C(=O)N[C@H](C(=O)N[C@@H](CC(C)C)C(=O)N[C@@H](C)C(=O)N[C@@H](CCC(N)=O)C(=O)N[C@H](C(N)=O)C(C)C)[C@@H](C)CC)[C@@H](C)O)[C@@H](C)CC)[C@@H](C)CC)C(C)C)C(C)C) [SEQ ID NO: 70]
3.15 nM | IVLSLDVPIKLK([AEEA-AEEA-γGlu-C18 diacid])K[Aib]LLEQERQKKQREQAETN[Aib]QILAQV-NH2 (N-terminus assumed; SMILES CC[C@H](C)[C@H](N)C(=O)N[C@H](C(=O)N[C@@H](CC(C)C)C(=O)N[C@@H](CO)C(=O)N[C@@H](CC(C)C)C(=O)N[C@@H](CC(=O)O)C(=O)N[C@H](C(=O)N1CCC[C@H]1C(=O)N[C@H](C(=O)N[C@@H](CCCCN)C(=O)N[C@@H](CC(C)C)C(=O)N[C@@H](CCCCNC(=O)COCCOCCNC(=O)COCCOCCNC(=O)CC[C@H](NC(=O)CCCCCCCCCCCCCCCCC(=O)O)C(=O)O)C(=O)N[C@@H](CCCCN)C(=O)NC(C)(C)C(=O)N[C@@H](CC(C)C)C(=O)N[C@@H](CC(C)C)C(=O)N[C@@H](CCC(=O)O)C(=O)N[C@@H](CCC(N)=O)C(=O)N[C@@H](CCC(=O)O)C(=O)N[C@@H](CCCNC(=N)N)C(=O)N[C@@H](CCC(N)=O)C(=O)N[C@@H](CCCCN)C(=O)N[C@@H](CCCCN)C(=O)N[C@@H](CCC(N)=O)C(=O)N[C@@H](CCCNC(=N)N)C(=O)N[C@@H](CCC(=O)O)C(=O)N[C@@H](CCC(N)=O)C(=O)N[C@@H](C)C(=O)N[C@@H](CCC(=O)O)C(=O)N[C@H](C(=O)N[C@@H](CC(N)=O)C(=O)NC(C)(C)C(=O)N[C@@H](CCC(N)=O)C(=O)N[C@H](C(=O)N[C@@H](CC(C)C)C(=O)N[C@@H](C)C(=O)N[C@@H](CCC(N)=O)C(=O)N[C@H](C(N)=O)C(C)C)[C@@H](C)CC)[C@@H](C)O)[C@@H](C)CC)C(C)C)C(C)C) [SEQ ID NO: 71]

Reference: US12679878B2, “CRF2 receptor agonists and their use in therapy” (SANOFI, priority 2020, dated 2026)
